In patent US6617117B1, “MAP kinases: polypeptides, polynucleotides and uses thereof” (Medical Research Council, priority 1996, dated 2003):

T1: rat SAPK3 (Rattus norvegicus, UniProt Q63538)
T1 construct: made in house; host or cells: E. coli BL21 (DE3)
T1 sequence (Q63538 1-367): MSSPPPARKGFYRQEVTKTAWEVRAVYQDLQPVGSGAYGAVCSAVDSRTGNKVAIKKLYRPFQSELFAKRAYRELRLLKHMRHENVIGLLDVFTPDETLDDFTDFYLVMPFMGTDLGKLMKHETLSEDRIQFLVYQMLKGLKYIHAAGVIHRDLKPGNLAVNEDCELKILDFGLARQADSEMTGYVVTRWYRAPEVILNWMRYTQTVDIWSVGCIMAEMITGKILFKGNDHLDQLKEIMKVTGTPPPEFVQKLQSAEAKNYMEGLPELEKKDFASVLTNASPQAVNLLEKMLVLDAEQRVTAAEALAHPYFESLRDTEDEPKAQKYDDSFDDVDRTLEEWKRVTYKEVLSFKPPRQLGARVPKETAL

T2: SAPK4 (Homo sapiens, UniProt O15264)
T2 sequence (O15264 1-365): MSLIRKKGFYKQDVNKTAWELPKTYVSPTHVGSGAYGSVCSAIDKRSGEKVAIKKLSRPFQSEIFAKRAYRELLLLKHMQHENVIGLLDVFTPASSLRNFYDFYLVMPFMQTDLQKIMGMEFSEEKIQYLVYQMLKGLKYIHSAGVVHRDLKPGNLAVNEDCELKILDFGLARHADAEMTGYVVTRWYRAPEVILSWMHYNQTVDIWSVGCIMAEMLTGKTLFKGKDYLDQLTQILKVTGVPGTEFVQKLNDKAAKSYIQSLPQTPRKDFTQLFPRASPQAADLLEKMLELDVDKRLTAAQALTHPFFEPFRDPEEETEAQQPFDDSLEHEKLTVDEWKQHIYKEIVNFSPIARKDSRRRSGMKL

B1: ATF2: transcription factor activation domain linked to GST, kinase substrate (protein)
chain: MSDDKPFLCTAPGCGQRFTNEDHLAVHKHKHEMTLKFGPARNDSVIVADQTPTPTRFLKNCEEVGLFNELASPFENEF
modifications: left off: a dimerising Fc or GST
B2: SAP-1: transcription factor activation domain linked to GST, kinase substrate (protein)
chain: TPSPPLSSHPDIDTDIDSVASQPMELPENLSLEPKDQDSVLLEKDKVNNSSRSKKPKGLELAPTLVITSSDPSPLGILSPSLPTASLTPAFFSQTPIILTPSPLLSSIHFWSTLSPVAPLSPARLQGANTLFQFPSVLNSHGPFTLSGLDGPSTPGPFSPDLQKT
modifications: left off: a dimerising Fc or GST
B3: c-Jun: transcription factor activation domain linked to GST, kinase substrate (protein)
chain: MTAKMETTFYDDALNASFLPSESGPYGYSNPKILKQSMTLNLADPVGSLKPHLRAKNSDLLTSPDVGLLKLASPELERLIIQSSNGHITTTPTPTQFLCPKNVTDEQEGFAEGFVRALAELHSQNTLPSVTSAAQPVNGAGMVAPAVASVAGGSGSGGFSASLHSEPPVYANLSNFNPGALSSGGGAPSYGAAG
modifications: left off: a dimerising Fc or GST
B4: MAPKAP-K3: MAP kinase-activated protein kinase-3, GST fusion used as kinase substrate (protein)
chain: MDGETAEEQGGPVPPPVAPGGPGLGGAPGGRREPKKYAVTDDYQLSKQVLGLGVNGKVLECFHRRTGQKCALKLLYDSPKARQEVDHHWQASGGPHIVCILDVYENMHHGKRCLLIIMECMEGGELFSRIQERGDQAFTEREAAEIMRDIGTAIQFLHSHNIAHRDVKPENLLYTSKEKDAVLKLTDFGFAKETTQNALQTPCYTPYYVAPEVLGPEKYDKSCDMWSLGVIMYILLCGFPPFYSNTGQAISPGMKRRIRLGQYGFPNPEWSEVSEDAKQLIRLLLKTDPTERLTITQFMNHPWINQSMVVPQTPLHTARVLQEDKDHWDEVKEEMTSALATMRVDYDQVKIKDLKTSNNRLLNKRRKKQAGSSSASQGCNNQ
modifications: left off: a dimerising Fc or GST

Molecular target: T3, SAPK2 (Xenopus homologue) (Xenopus laevis, UniProt P47812)
T3 construct: made in house; host or cells: E. coli
T3 sequence (P47812 whole entry): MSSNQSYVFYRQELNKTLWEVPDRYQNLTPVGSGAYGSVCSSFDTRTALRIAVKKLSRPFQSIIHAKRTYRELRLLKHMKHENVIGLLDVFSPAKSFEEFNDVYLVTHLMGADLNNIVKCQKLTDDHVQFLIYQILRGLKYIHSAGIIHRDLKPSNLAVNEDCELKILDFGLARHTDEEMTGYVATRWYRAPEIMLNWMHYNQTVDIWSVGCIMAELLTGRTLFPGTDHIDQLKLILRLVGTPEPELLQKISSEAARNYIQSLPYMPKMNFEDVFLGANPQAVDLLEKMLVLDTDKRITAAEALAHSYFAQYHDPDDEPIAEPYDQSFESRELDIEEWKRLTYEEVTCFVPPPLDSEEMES
Test: Substrate specificity: rate of phosphorylation by SAPK2 (Table 2)
Assay type: biochemical
Settings: substrate 1 μM; SAPK 0.1 U/ml
Protocol: (§1) Protein kinase assays. SAPK3 was assayed routinely by the phosphorylation of MBP. […] After 20 min at 30° C.
(§2) Table 2. Comparison of substrate specificities of SAPK2 and SAPK3. SAPK2 and SAPK3 were activated in vitro (FIG. 15) and phosphorylation of each protein studied at a SAPK concentration of 0.1 U/ml.

| Rate of phosphorylation relative to MBP, SAPK2 | Molecule |
| --- | --- |
| 86 ± 20 | B1 |
| 55 ± 13 | B2 |
| 2 ± 1 | B3 |

Molecular target: T4, Xenopus homologue of SAPK2a (Xenopus laevis, UniProt P47812)
T4 construct: made in house; host or cells: E. coli
T4 sequence (P47812 whole entry): as above
Test: Substrate specificity: rate of phosphorylation by SAPK2a (Table 1)
Assay type: biochemical
Settings: substrate 1 μm; SAPK 0.15 U/ml; means ± SEM of six determinations
Protocol: (§3) Experiments were carried out with the Xenopus homologue of SAPK2a, human SAPK2b and human SAPK4. The SAPKs were activated in vitro (FIG. 7) and phosphorylation of each protein was studied at a SAPK concentration of 0.15 U/ml. The results are presented as means±SEM of six determinations (two separate experiments). The data for rat SAPK3 are taken from Example 4 and Cuenda et al (1997).

| Rates of phosphorylation relative to MBP, SAPK2a [%] | Molecule |
| --- | --- |
| 87 ± 10 | B4 |
| 40 ± 2 | B1 |
| 25 ± 1 | B2 |
| 4 ± 1 | B3 |

Molecular target: T5, human SAPK2b (Homo sapiens, UniProt Q15759)
T5 construct: a number of SAPK2b clones, some of which were full-length; made in house; host or cells: E. coli BL21(DE3)
T5 sequence (Q15759 whole entry): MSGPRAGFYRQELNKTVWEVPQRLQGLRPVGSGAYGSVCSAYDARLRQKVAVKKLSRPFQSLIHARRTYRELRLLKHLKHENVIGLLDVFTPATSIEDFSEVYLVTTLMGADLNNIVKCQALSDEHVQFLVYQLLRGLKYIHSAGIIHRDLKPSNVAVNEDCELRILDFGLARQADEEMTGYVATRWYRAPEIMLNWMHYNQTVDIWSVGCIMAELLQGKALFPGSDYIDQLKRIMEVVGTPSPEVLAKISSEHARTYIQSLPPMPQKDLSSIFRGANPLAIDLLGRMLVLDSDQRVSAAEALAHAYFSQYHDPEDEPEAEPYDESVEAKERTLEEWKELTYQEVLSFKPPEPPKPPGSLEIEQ
Test: Substrate specificity: rate of phosphorylation by SAPK2b (Table 1)
Assay type: biochemical
Settings: substrate 1 μm; SAPK 0.15 U/ml; means ± SEM of six determinations
Protocol: as §3

| Rates of phosphorylation relative to MBP, SAPK2b [%] | Molecule |
| --- | --- |
| 66 ± 6 | B4 |
| 62 ± 2 | B1 |
| 27 ± 5 | B2 |
| 7 ± 2 | B3 |

Molecular target: T1, rat SAPK3
Test: Substrate specificity: rate of phosphorylation by SAPK3 (Tables 1 and 2)
Assay type: biochemical
Settings: substrate 1 μM; SAPK 0.1 U/ml
Protocol: as §3, §1, §2

| Rate of phosphorylation relative to MBP, SAPK3 | Molecule |
| --- | --- |
| 107 ± 20 | B1 |
| 108 ± 15 | B2 |
| 2 ± 1 | B3 |

Same assay, conditions: substrate 1 μm; rat SAPK3 data taken from Example 4 and Cuenda et al (1997)

| Rates of phosphorylation relative to MBP, SAPK3 [%] | Molecule |
| --- | --- |
| 20 ± 6 | B4 |
| 107 ± 20 | B1 |
| 108 ± 15 | B2 |
| 2 ± 1 | B3 |

Molecular target: T2, SAPK4
Test: Substrate specificity: rate of phosphorylation by SAPK4 (Table 1)
Assay type: biochemical
Design: made in house; host or cells: E. coli BL21(DE3)
Settings: substrate 1 μm; SAPK 0.15 U/ml; means ± SEM of six determinations
Protocol: as §3
SAPK4 is assayed routinely by the phosphorylation of MBP. […] After washing and drying the papers (Alessi et al, 1995 Meth. Enzymol. 255, 279-290) ^32P radioactivity incorporated into MBP is measured.

| Rates of phosphorylation relative to MBP, SAPK4 [%] | Molecule |
| --- | --- |
| 18 ± 2 | B4 |
| 130 ± 2 | B1 |
| 62 ± 5 | B2 |
| 6 ± 2 | B3 |
